Like-named read-outs stand apart in the source and are kept apart here.
What was measured:
[1] = target: T1, human alpha-thrombin (Homo sapiens, UniProt P00734;P00734 328-363;364-622); experiment: competition
[2] = target: T1, human alpha-thrombin; experiment: competition; remark: listed apart in the source

| Binder | binding result [1] | binding result [2] |
| --- | --- | --- |
| GGCGTAACTGATCGATCGT (ssDNA) [non-specific oligonucleotide] | no binding |  |
| GGTTGGTGTGGTTGG (structured_DNA) [thrombin binding aptamer (TBA) oligo] |  | binds |

Source: article PMC3961559
